Assay results as given in patent US10870710B2, “Synthetic oligosaccharide subunits of the Psl exopolysaccharide of pseudomonas aeruginosa and uses thereof” (Medlmmune Limited, priority 2013, dated 2020).
Substitutions are numbered along the chain they refer to.

B1: WapR-003: anti-Psl monoclonal antibody, class II epitope; VH SEQ ID NO: 9, VL SEQ ID NO: 10 (antibody, V domains shown)
VH: QMQLVQSGGGLVQPGGSLRLSCSASGFTFSSYPMHWVRQAPGKGLDYVSDISPNGGATNYADSVKGRFTISRDNSKNTVYLQMSSLRAEDTAVYYCVMGLVPYGFDNWGQGTMVTVSS
VL: QTVVTQPASVSASPGQSITISCAGTSGDVGNYNFVSWYQQHPGKAPKLLIYEGSQRPSGVSNRFSGSRSGNTASLTISGLQAEDEADYYCSSYARSYTYVFGTGTKLTVL
modifications: WapR-003 VH; WapR-003 VL
B2: WapR-002: anti-Psl monoclonal antibody, class II epitope; VH SEQ ID NO: 7, VL SEQ ID NO: 8 (antibody, V domains shown)
VH: B1 VH with M2V, A57S, V79L, Y80F, N107I, M113L
VL: QTVVTQPASVSGSPGQSITISCTGTSSDVGGYNYVSWYQQHPGKAPKLMIYEVSNRPSGVSNHFSGSKSGNTASLTISGLQAEDEADYYCSSYTTSSTYVFGTGTKVTVL
modifications: WapR-002 VH; WapR-002 VL
B3: WapR-001: anti-Psl monoclonal antibody, class II epitope; VH SEQ ID NO: 5, VL SEQ ID NO: 6 (antibody, V domains shown)
VH: EVQLLESGGGLVQPGGSLRLSCSASGFTFSRYPMHWVRQAPGKGLEYVSDIGTNGGSTNYADSVKGRFTISRDNSKNTVYLQMSSLRAEDTAVYHCVAGIAAAYGFDVWGQGTMVTVSS
VL: QAGLTQPASVSGSPGQSITISCTGTSSDIATYNYVSWYQQHPGKAPKLMIYEGTKRPSGVSNRFSGSKSGNTASLTISGLQAEDEADYYCSSYARSYTYVFGTGTELTVL
modifications: WapR-001 VH; WapR-001 VL

What was measured:
[1] = system: attachment of Pseudomonas aeruginosa to epithelial cells; details: mAb concentration giving max. inhibition of cell attachment; cited from earlier work
[2] = target: Pseudomonas aeruginosa Psl exopolysaccharide; details: anti-Psl mAb binding; cited from earlier work
[3] = system: P. aeruginosa; details: cited from earlier work
[4] = system: Psl; test: mAb reactivity with Psl after mild alkaline treatment during carbohydrate purification; assay type: binding, P. aeruginosa; details: data not shown
From the text: This observation raises the possibility that the class I mAb binds to a conformational epitope or a yet to be elucidated sub-stoichiometric Psl isoform. The potential for the latter is supported by the observation that mild alkaline, but not exhaustive protease treatment, during carbohydrate purification abolishes Cam-003 reactivity while maintaining WapR-001 and WapR-016 reactivity (data not shown).

Molecule	Cell attachment max. inhibition [1] [µg/mL]	Kd [2] [nM]	OPK EC50 [3] [µg/mL]	mAb reactivity after mild alkaline treatment of Psl [4]
B1	30.0	12.2	0.278	
B2	30.0	12.6	0.396	
B3	30.0	0.84	0.310	maintaining
